# Patent US20030124602
# Test system: Flag epitope tagged CTMPs (F.CTMPs; CTMP starting at the natural ATG of the cDNA)
# Sequence (chain, as listed by the source): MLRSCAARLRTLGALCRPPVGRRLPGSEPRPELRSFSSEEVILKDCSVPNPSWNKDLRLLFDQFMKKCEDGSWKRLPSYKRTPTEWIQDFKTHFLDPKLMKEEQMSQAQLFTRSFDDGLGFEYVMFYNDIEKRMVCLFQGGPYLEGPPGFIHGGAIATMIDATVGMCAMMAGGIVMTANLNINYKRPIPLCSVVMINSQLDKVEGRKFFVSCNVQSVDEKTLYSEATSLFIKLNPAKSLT
substance,measurement,value
"HA epitope-tagged PKB alpha (HA-PKBα, pCMV5-HA-PKBα)","phosphorylation of PKB on Thr 308 and Ser 473, Western blot with phospho-specific antibodies",CTMP expression leads to a reduction of phosphorylation on both residues but most notably on the S473 site
